Source: article PMC8100106, “Selection of a picomolar antibody that targets CXCR2-mediated neutrophil activation and alleviates EAE symptoms” (Nature Communications, 2021)
Positions count from the first letter of the chain named. Values belong to the binder of their own block, whether it stands above or below them.

Experiments:
[1] = target: T1, pepN48, first 48 residues of the extracellular N-terminus of hCXCR2 (Homo sapiens, biotin on the N-terminus); test: SPR; biotinylated pepN48 loaded on streptavidin chip (Series S Sensor Chip SA), antibody flowed over, Biacore T200, HBS-EP+ buffer pH 7.4; details: both partners purified
T1 construct: human CXC chemokine receptor 2 (CXCR2), first 48 residues; also called CXCR2 N-terminal peptide; source: synthetic peptide (Chinese Peptide)
T1 chain: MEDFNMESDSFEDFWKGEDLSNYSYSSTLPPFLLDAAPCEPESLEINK

[2] = target: T2, pepN48, peptide of the first 48 residues of the extracellular N-terminus of hCXCR2 (Homo sapiens, biotin labeled on its N-terminus); test: SPR; biotinylated pepN48 loaded on a streptavidin Series S Sensor Chip SA; antibody flowed; Biacore T200; HBS-EP+ buffer pH 7.4; details: both partners purified
T2 construct: human CXC chemokine receptor 2 (CXCR2), first 48 residues; a blank before the last K in the print was removed; also called CXCR2 N-terminal peptide; source: synthetic peptide (Chinese Peptide, Hangzhou)
T2 chain: T1 chain

[3] = target: T3, human CXCR2 (hCXCR2)-mCherry fusion protein on U2OS cells (human, UniProt P25025); test: immunostaining of cells or tissue; U2OS cells overexpressing receptor-mCherry, fixed with 4% paraformaldehyde; 2 μg mL^−1 antibody at 4 °C overnight; Alexa Fluor 488 anti-human IgG; confocal microscopy; details: one partner purified
T3 construct: human CXC chemokine receptor 2 (CXCR2); Also used here as the target of the functional rows, whose cells (Tango CXCR2-bla U2OS; CHO with hCXCR2 and Gα16; U2OS overexpressing hCXCR2) carry other hCXCR2 constructs; also called CXC chemokine receptor 2; source: U2OS, transiently overexpressed, on cells

[4] = target: T4, macaque CXCR2 (mcCXCR2-mCherry) on U2OS cells (Macaca mulatta (macaque species not …, UniProt A0A5F7ZQV3)); test: flow cytometry on cells; U2OS cells transiently overexpressing receptor-mCherry; 2 μg mL^−1 antibody in FACS buffer (0.5% BSA in PBS pH 7.4, 2 mM EDTA), 4 °C, 15 min; Alexa Fluor 488 anti-human IgG; details: one partner purified
T4 construct: macaque CXCR2; also called macaque monkey CXCR2; source: U2OS, transiently overexpressed, on cells
T4 sequence (Q28519 whole entry): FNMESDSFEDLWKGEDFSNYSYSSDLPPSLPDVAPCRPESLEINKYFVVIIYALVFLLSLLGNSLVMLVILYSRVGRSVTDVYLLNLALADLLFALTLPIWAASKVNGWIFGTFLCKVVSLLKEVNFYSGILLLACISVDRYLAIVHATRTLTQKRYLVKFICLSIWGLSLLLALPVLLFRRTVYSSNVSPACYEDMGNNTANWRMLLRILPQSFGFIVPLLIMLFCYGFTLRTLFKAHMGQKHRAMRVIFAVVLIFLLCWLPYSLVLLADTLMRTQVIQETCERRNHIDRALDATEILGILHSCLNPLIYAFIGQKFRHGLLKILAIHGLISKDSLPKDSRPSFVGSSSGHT

[5] = target: T5, pepN9-19, 9-19 amino acid peptide of hCXCR2 (human); test: crystal structure; Fab mixed with pepN9-19 at a molar ratio of 1:3; hanging drop vapor diffusion, 18 °C; details: both partners purified
T5 construct: human CXCR2 residues 9-19; source: synthetic peptide (Sangon Biotech) for crystallography
T5 chain: DSFEDFWKGED

[6] = target: T3, human CXCR2 (hCXCR2)-mCherry fusion …; test: cell-based or functional assay
[7] = target: T3, human CXCR2 (hCXCR2)-mCherry fusion …; test: flow cytometry on cells; cellular supernatants with scFv-Fc on U2OS cells with membrane-bound hCXCR2-mCherry; details: partners not purified

B1: abN48-IgG1 (antibody, V domains shown)
VH: QVQLVQSGAEVKKPGSSVKVSCKASGGTLSSYAISWVRQAPGQGPEWMGWINPNSGGTNYAQKFQGRVTMTRDTSISTAYMELSRLRPDDTAVYYCASGYCSSTSCYDYWGQGTLVTVSS
VL: QAVLTQPSSLSASPGASVSLTCTLRSGINVGAYRIYWYQQKPGSPPQFLLRYKSDSDKQQGSGVPSRFSGSRDASANAGILLISGLRSEDEADYYCAIWHSSAWVFGGGTQLTVL
notes: VH of abN48 (from the scFv H8); complete constant domains of the IgG1 heavy chain; VL of abN48 on a complete light chain constant domain (lambda type is said of abN48-2-IgG1); IgG1; made from the scFv abN48 (H8); source: HEK293F, co-transfected heavy and light chain plasmids, purified (Protein A)
koff [1]: 0.00035 s⁻¹
kon [1]: 350000 M⁻¹ s⁻¹

B5: abN48-2-IgG1 (antibody, V domains shown)
VH: B1 VH with S103R, S105R
VL: B1 VL
notes: VH as the heavy chain of Dm1 with two changes in H-CDR3 (Kabat numbering); complete constant domains of the IgG1 heavy chain; as the light chain of Dm1 (lambda type); IgG1, lambda; also called H8-2
koff [1]: 1.7e-05 s⁻¹
kon [1]: 940000 M⁻¹ s⁻¹

B6: abN48-2-IgG1 (antibody, V domains shown)
VH: B1 VH with S103R, S105R
VL: B1 VL
notes: VH of abN48-2; equals the VH of m2 (PDB 6KVF) with Ser99 to Arg99 and Ser100A to Arg100A in H-CDR3 (Kabat numbering); complete constant domains of human IgG1 heavy chain; whole lambda light chain; as the light chain of m2; Full-length IgG1, lambda type; also called ab48-2-IgG1; AbN4-2-IgG1; source: HEK293T (results) or HEK293F (methods), transfected, purified (HiTrap Protein A)
Kd [2]: 0.0072 nM
partial agonist effect on Ca^2+ influx at high concentration (10–1000 nM), FLIPR, apparent EC50 [6]: 310 nM
binding result [4]: binds

Results, then the binder that gave them:

Kd [2]: 0.78 nM
binding result [3]: binds
binding result [4]: binds
B2: abN48-IgG1 (antibody, V domains shown)
VH: B1 VH
VL: B1 VL
notes: VH of abN48; complete constant domains of human IgG1 heavy chain; whole light chain of abN48 (VL and CL); Full-length IgG1; source: HEK293F, co-transfected heavy and light chain plasmids, purified (HiTrap Protein A)

binding result [5]: binds
B3: abN48 Fab (Fab, V domains shown)
VH: B1 VH
VL: B1 VL
notes: Fab heavy chain of abN48; light chain of abN48; as the light chain of m2; source: Fab made following a similar protocol as for abN48-2 Fab (papain cleavage of the IgG1, purified)

binding result [5]: binds
B4: abN48-2 Fab (Fab, V domains shown)
VH: B1 VH with S103R, S105R
VL: B1 VL
notes: Fab heavy chain of abN48-2; VH equals that of m2 (PDB 6KVF) with Ser99 to Arg99 and Ser100A to Arg100A (Kabat numbering); lambda light chain; as the light chain of m3; source: papain cleavage of abN48-2-IgG1, purified (HiTrap lambda HP, Superdex200 increase)

binding result [7]: binds
Kd [2]: 2.6 nM
B7: H8 (abN48) scFv antibody (scFv, V domains shown)
VH: B1 VH
VL: B1 VL
notes: VH and VL as in the abN48 Fab of PDB 6KVF; Expressed as scFv-Fc with the entire Fc domain of human IgG1 (pFuse, InvivoGen pfuse-hg1fc2); also called scFv-Fc; source: HEK293F, transfected (pFuse vector); in cellular supernatant, and purified (HiTrap Protein A)
